The DeepSol protein solubility set

Assay: soluble on expression in E. coli; label from the status in PepcDB or PDB records

Row | Sequence | soluble on expression in E. coli
1 | HHHHHHMASSAQDGNNPLFSPYKMGKFNLSHRVVLAPMTRCRALNNIPQAALGEYYEQRATAGGFLITEGTMISPTSAGFPHVPGIFTKEQVREWKKIVDVVHAKGAVIFCQLWHVGRASHEVYQPAGAAPISSTEKPISNRWRILMPDGTHGIYPKPRAIGTYEISQVVEDYRRSALNAIEAGFDGIEIHGAHGYLIDQFLKDGINDRTDEYGGSLANRCKFITQVVQAVVSAIGADRVGVRVSPAIDHLDAMDSNPLSLGLAVVERLNKIQLHSGSKLAYLHVTQPRYVAYGQTEAGRLGSEEEEARLMRTLRNAYQGTFICSGGYTRELGIEAVAQGDADLVSYGRLFISNPDLVMRIKLNAPLNKFNRKTFYTQDPVVGYTDYPFLQGNGSNGPLSRL | soluble
2 | HLEDVKFMIVGLPDVGLVGAITGMHLIRSKDMSYTVGIDHYGALPPVVIMNRGRVLHPIRIYRSGDVAALITDVPILPAAIPSFSAAVVEYSRRRGIEYIISATGVGNPKRLEQEKPSLYWLASDKKASLLASSLRMASEPEQGIIVGPYAIILKEAMKKHVHNLVLLADSFIDIPDPEAAAVIVEGINSITGLNVSVDELIKQAEEIKLRMRDLMKETKAVMARMGKEMEYRAPILYT | not soluble
3 | HLKFQSVFDIIGPVMIGPSSSHTAGAVRIGKVVHSIFGEPSEVTFHLYNSFAKTYQGHGTDKALVAGILGMDTDNPDIKNSLEIAHQKGIKIYWDILKDSNSPHPNTAKITVKNGDRSMSITGVSIGGGNIQVTELNG | not soluble
4 | HLPKPTLWAEPGSVITQGSPVTLRCQGGQETQEYRLYREKKTAPWITRIPQELVKKGQFPIPSITWEHAGRYRCYYGSDTAGRSESSDPLELVVTGAYIKPTLSAQPSPVVNSGGNVTLQCDSQVAFDGFILCKEGEDEHPQCLNSQPHARGSSRAIFSVGPVSPSRRWWYRCYAYDSNSPYEWSLPSDLLELLVLG | soluble
5 | HMARSLYPLGVSRSLPPYRRTFNHQTFIFVKSILRLGVSMEEEEFDIREALANGEHLEKILIMAKYDESVLKKLIELLDDDLWTVVKNAISIIMVIAKTREDLYEPMLKKLFSLLKKSEAIPLTQEIAKAFGQMAKEKPELVKSMIPVLFANYRIGDEKTKINVSYALEEIAKANPMLMASIVRDFMSMLSSKNREDKLTALNFIEAMGENSFKYVNPFLPRIINLLHDGDEIVRASAVEALVHLATLNDKLRKVVIKRLEELNDTSSLVNKTVKEGISRLLLLEGHSSS | soluble
6 | HMGARASVLSGGELDKWEKIRLRPGGKKQYKLKHIVWASRELERFAVNPGLLETSEGCRQILGQLQPSLQTGSEELRSLYNTIAVLYCVHQRIDVKDTKEALDKIEEEQNKSKKKAQQAAADTGNNSQVSQNY | soluble
7 | HMSSLQRASVSFNKPGHIPFGAVQGYAPGGVPAYSNKHDHYFSGERNIEDNIFFGFKYQCVEFARRWLLVRKGLLLPDVNWACHIFQLKEVRDAATTESFAVLQVRNGTTTKPEADALLVYPSTDANPVGHVGTITEVGDDYVCVADQNYRFHKWESSCAYKLKLDHRDGIWTIIDDIDADEIEIPLGWLTFPGRANRPEGAPPVALHPSLHFKEPPKPYLLRRNFLPTESKANWLDMNNPAERLFVEEFGMDVSRTRLEEKVVSYYESNHEFHLRCVAYGTQLHAIFMEATAQVIESDEKLRLFAIPEEFWPRIRHSWKYQQTYISGRFDFAFNNETGEVKCFEYNADSASTLLECGLIQQKWAESVGLDKQDTRGSGFAVERNLKMAWANSGATGRVHFCVDEEREEQYTALYCMQAAEAVGLEGKLCILFDEFRFDDNGHVVDSDGVRVRNVWKTWMWESAITDYYAAREERGENWKPSPKDKVRLCDLLLGDDWEILYFEPMWKVIPSNKAILPMIYHNHPEHPAILKAEYELTDELRKHGYAKKPIVGRVGSNVIITSGDGVVHAESGGKYGKRNMIYQQLFELKKQDDYYAIIGGWMIGDAFSGTGIREDKSVITGVDSPFAAVRIKTDKLPHPVTLKDIDKMAEDE | soluble
8 | HMTHIDDYSTWDIVKATQYGIYERCRELVEAGYDVRQPDKENVTLLHWAAINNRIDLVKYYISKGAIVDQLGGDLNSTPLHWATRQGHLSMVVQLMKYGADPSLIDGEGCSCIHLAAQFGHTSIVAYLIAKGQDVDMMDQNGMTPLMWAAYRTHSVDPTRLLLTFNVSVNLGDKYHKNTALHWAVLAGNTTVISLLLEAGANVDAQNIKGESALDLAKQRKNVWMINHLQEARQAKGYDN | soluble
9 | HNNLLSQLGSSHNSITYDIIFGNKDTKNYYAQFAKKHQTHLYSQISSSNQQELKYVDNDPNLKIKEEAAKSTVQNLTVYS | soluble
